Laboratory results published in US20140148396A1.

Target: EMMPRIN in mouse aortic endothelial cells (MAEC) (mouse) (UniProt P18572)
Test: cell-based or functional assay

reduction of MMP-9 in mice compared to the IgG control: > 50%
Substance: anti-EMMPRIN antibody (rat-anti-mouse-EMMPRIN, OX114 clone)
